# Experimental data: the supplement of paper PMC9112550, “Optimization of the antimicrobial peptide Bac7 by deep mutational scanning” (BMC Biology, 2022)
# Test system: Escherichia coli TOP10
# Experiment: shrunken log2 fold change of peptide-encoding DNA abundance (4.5 h post-induction vs induction); higher = less antimicrobial activity (less host growth inhibition)
# Conditions: time post-induction: 4.5 h; library: site-saturation at positions 5, 18, 19, 20
# 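Also: peptides expressed intracellularly from a pBAD plasmid library in pooled LB shake-flask culture, induced with 0.3% L-arabinose, DNA abundance read by NGS, three biological replicates, DESeq2 with apeglm shrinkage.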
row,Sequence,shrunken log2 fold change
1,RRIRDRPPRLPRPRPRPFCAPRP,0.652
2,RRIRYRPPRLPRPRPRPFGAPRP,-0.391
3,RRIRFRPPRLPRPRPRPVMFPRP,-0.218
4,RRIRVRPPRLPRPRPRPFALPRP,0.0564
5,RRIRWRPPRLPRPRPRPCSAPRP,0.0988
6,RRIRGRPPRLPRPRPRPFRNPRP,0.0285
7,RRIRFRPPRLPRPRPRPMEDPRP,-0.015
8,RRIRARPPRLPRPRPRPPNRPRP,0.499
9,RRIRCRPPRLPRPRPRPWSAPRP,-0.308
10,RRIRVRPPRLPRPRPRPLKFPRP,0.044
11,RRIRPRPPRLPRPRPRPVMIPRP,-0.251
12,RRIRGRPPRLPRPRPRPYNTPRP,0.328
13,RRIRERPPRLPRPRPRPIEDPRP,-0.199
14,RRIRSRPPRLPRPRPRPYFPPRP,-0.694
15,RRIRFRPPRLPRPRPRPDLIPRP,-0.0121
16,RRIRARPPRLPRPRPRPEMEPRP,1.3
17,RRIRPRPPRLPRPRPRPMMFPRP,-0.213
18,RRIRLRPPRLPRPRPRPMQQPRP,0.0192
19,RRIRRRPPRLPRPRPRPYCIPRP,-0.264
20,RRIRQRPPRLPRPRPRPQHAPRP,-0.476
21,RRIRRRPPRLPRPRPRPPIAPRP,0.385
22,RRIRKRPPRLPRPRPRPLRKPRP,0.968
23,RRIRPRPPRLPRPRPRPTLCPRP,-0.0815
24,RRIRVRPPRLPRPRPRPVPHPRP,0.135
25,RRIRMRPPRLPRPRPRPPMHPRP,0.704

row,Sequence,shrunken log2 fold change
1,RRIRTRPPRLPRPRPRPNPPPRP,0.199
2,RRIRNRPPRLPRPRPRPKCEPRP,-0.0549
3,RRIRHRPPRLPRPRPRPPTAPRP,0.212
4,RRIRLRPPRLPRPRPRPMPAPRP,0.221
5,RRIRTRPPRLPRPRPRPNNLPRP,-0.252
6,RRIRVRPPRLPRPRPRPNANPRP,0.063
7,RRIRWRPPRLPRPRPRPSGFPRP,0.121
8,RRIRARPPRLPRPRPRPHCAPRP,0.149
9,RRIRNRPPRLPRPRPRPRNSPRP,-0.0392
10,RRIRKRPPRLPRPRPRPTHGPRP,0.547
11,RRIRCRPPRLPRPRPRPSRTPRP,0.0175
12,RRIRHRPPRLPRPRPRPAIPPRP,-0.112
13,RRIRFRPPRLPRPRPRPYLIPRP,-0.417
14,RRIRERPPRLPRPRPRPETGPRP,-0.373
15,RRIRCRPPRLPRPRPRPFPKPRP,0.131
16,RRIRRRPPRLPRPRPRPHFLPRP,-0.196
17,RRIRGRPPRLPRPRPRPTLGPRP,0.936
18,RRIRSRPPRLPRPRPRPDTAPRP,-0.0215
19,RRIRERPPRLPRPRPRPAPVPRP,0.055
20,RRIRFRPPRLPRPRPRPKTEPRP,0.0656
21,RRIRPRPPRLPRPRPRPMHIPRP,-0.105
22,RRIRERPPRLPRPRPRPPAGPRP,0.589
23,RRIRIRPPRLPRPRPRPLYYPRP,-0.856
24,RRIRMRPPRLPRPRPRPWQAPRP,0.00735
25,RRIRNRPPRLPRPRPRPEMNPRP,0.0511

row,Sequence,shrunken log2 fold change
1,RRIRPRPPRLPRPRPRPAVSPRP,0.171
2,RRIRGRPPRLPRPRPRPNANPRP,0.837
3,RRIRKRPPRLPRPRPRPAWAPRP,0.577
4,RRIRVRPPRLPRPRPRPEPMPRP,-0.0177
5,RRIRRRPPRLPRPRPRPSCMPRP,0.019
6,RRIRDRPPRLPRPRPRPYFCPRP,-0.177
7,RRIRDRPPRLPRPRPRPMHFPRP,-0.142
8,RRIRGRPPRLPRPRPRPWGNPRP,0.0898
9,RRIRCRPPRLPRPRPRPGEFPRP,-0.179
10,RRIRQRPPRLPRPRPRPQAEPRP,4.1
11,RRIRDRPPRLPRPRPRPCNYPRP,-0.475
12,RRIRQRPPRLPRPRPRPHGQPRP,0.184
13,RRIRIRPPRLPRPRPRPTGEPRP,0.00229
14,RRIRPRPPRLPRPRPRPAEYPRP,-0.565
15,RRIRVRPPRLPRPRPRPYCHPRP,-0.0116
16,RRIRRRPPRLPRPRPRPHLAPRP,-0.0318
17,RRIRARPPRLPRPRPRPNDLPRP,0.172
18,RRIRNRPPRLPRPRPRPTPTPRP,0.674
19,RRIRQRPPRLPRPRPRPRAYPRP,-0.0505
20,RRIRDRPPRLPRPRPRPAPQPRP,0.983
21,RRIRPRPPRLPRPRPRPYMFPRP,-0.897
22,RRIRDRPPRLPRPRPRPACPPRP,0.962
23,RRIRHRPPRLPRPRPRPPGTPRP,0.0679
24,RRIRHRPPRLPRPRPRPMHDPRP,-0.0353
25,RRIRSRPPRLPRPRPRPLIDPRP,-0.197

row,Sequence,shrunken log2 fold change
1,RRIRIRPPRLPRPRPRPKRSPRP,-0.335
2,RRIRVRPPRLPRPRPRPTCKPRP,-0.0395
3,RRIRWRPPRLPRPRPRPLIHPRP,-0.0681
4,RRIRTRPPRLPRPRPRPFPAPRP,0.299
5,RRIRTRPPRLPRPRPRPGFMPRP,-0.0526
6,RRIRMRPPRLPRPRPRPERWPRP,1.5
7,RRIRRRPPRLPRPRPRPCRSPRP,-0.03
8,RRIRGRPPRLPRPRPRPGGKPRP,0.555
9,RRIRDRPPRLPRPRPRPWINPRP,0.0363
10,RRIRGRPPRLPRPRPRPLISPRP,0.364
11,RRIRARPPRLPRPRPRPMIFPRP,0.292
12,RRIRCRPPRLPRPRPRPMDEPRP,0.348
13,RRIRKRPPRLPRPRPRPWGDPRP,0.499
14,RRIRPRPPRLPRPRPRPVSLPRP,-0.104
15,RRIRNRPPRLPRPRPRPAPAPRP,0.959
16,RRIRYRPPRLPRPRPRPKQKPRP,-0.0531
17,RRIRRRPPRLPRPRPRPKCPPRP,0.278
18,RRIRRRPPRLPRPRPRPHMAPRP,-0.128
19,RRIRPRPPRLPRPRPRPMLDPRP,0.071
20,RRIRGRPPRLPRPRPRPCDWPRP,0.519
21,RRIRGRPPRLPRPRPRPNLQPRP,0.347
22,RRIRPRPPRLPRPRPRPRNAPRP,0.39
23,RRIRRRPPRLPRPRPRPYTFPRP,-0.0103
24,RRIRGRPPRLPRPRPRPCWSPRP,0.144
25,RRIRVRPPRLPRPRPRPRSSPRP,-0.244

row,Sequence,shrunken log2 fold change
1,RRIRNRPPRLPRPRPRPTAMPRP,0.285
2,RRIRFRPPRLPRPRPRPHRHPRP,-0.333
3,RRIRVRPPRLPRPRPRPTTWPRP,-0.0829
4,RRIRIRPPRLPRPRPRPEVMPRP,-0.195
5,RRIRWRPPRLPRPRPRPRVGPRP,0.563
6,RRIRDRPPRLPRPRPRPIMEPRP,0.594
7,RRIRVRPPRLPRPRPRPCYHPRP,-0.00421
8,RRIRIRPPRLPRPRPRPYNLPRP,-0.391
9,RRIRMRPPRLPRPRPRPIGNPRP,0.13
10,RRIRKRPPRLPRPRPRPVIKPRP,0.0845
11,RRIRRRPPRLPRPRPRPVCEPRP,0.935
12,RRIRTRPPRLPRPRPRPVRRPRP,0.38
13,RRIRTRPPRLPRPRPRPLRRPRP,0.323
14,RRIRGRPPRLPRPRPRPIAFPRP,0.8
15,RRIRIRPPRLPRPRPRPYPQPRP,-0.974
16,RRIRPRPPRLPRPRPRPTRQPRP,0.221
17,RRIRKRPPRLPRPRPRPSSKPRP,-0.181
18,RRIRFRPPRLPRPRPRPNHAPRP,0.0222
19,RRIRPRPPRLPRPRPRPMKGPRP,0.15
20,RRIRTRPPRLPRPRPRPGIFPRP,-0.146
21,RRIRMRPPRLPRPRPRPYPQPRP,0.0818
22,RRIRKRPPRLPRPRPRPVPYPRP,-0.0558
23,RRIRQRPPRLPRPRPRPKHAPRP,0.401
24,RRIRKRPPRLPRPRPRPWHQPRP,-0.0165
25,RRIRMRPPRLPRPRPRPRMCPRP,0.0537

row,Sequence,shrunken log2 fold change
1,RRIRRRPPRLPRPRPRPHKPPRP,-0.176
2,RRIRWRPPRLPRPRPRPKMQPRP,0.329
3,RRIRARPPRLPRPRPRPNKRPRP,0.214
4,RRIRIRPPRLPRPRPRPCGCPRP,-0.248
5,RRIRERPPRLPRPRPRPLKYPRP,-0.38
6,RRIRPRPPRLPRPRPRPQFTPRP,-0.285
7,RRIRERPPRLPRPRPRPDGRPRP,-0.03
8,RRIRGRPPRLPRPRPRPDRWPRP,0.703
9,RRIRPRPPRLPRPRPRPSNNPRP,-0.542
10,RRIRCRPPRLPRPRPRPGFPPRP,0.134
11,RRIRARPPRLPRPRPRPGQQPRP,0.209
12,RRIRKRPPRLPRPRPRPDQLPRP,0.107
13,RRIRRRPPRLPRPRPRPMVIPRP,-0.189
14,RRIRLRPPRLPRPRPRPKSMPRP,-0.0449
15,RRIRFRPPRLPRPRPRPYHAPRP,-0.0961
16,RRIRHRPPRLPRPRPRPWYAPRP,-0.41
17,RRIRPRPPRLPRPRPRPCIGPRP,0.00708
18,RRIRRRPPRLPRPRPRPYYRPRP,-0.186
19,RRIRYRPPRLPRPRPRPWSHPRP,-0.05
20,RRIRKRPPRLPRPRPRPFNTPRP,-0.0902
21,RRIRARPPRLPRPRPRPQTNPRP,0.36
22,RRIRLRPPRLPRPRPRPDNIPRP,-0.535
23,RRIRARPPRLPRPRPRPGLEPRP,0.629
24,RRIRCRPPRLPRPRPRPWETPRP,0.323
25,RRIRGRPPRLPRPRPRPRQEPRP,0.527
